The labels stand for the following.
B1: TPR 5TU (parent)
chain: GGAUCUUCUCGAUCUAACAAAAAAGACAAAUCUGCCACAAAGCUUGAGAGCAUCUUCGGAUGCAGAGGCGGCAGCCUUCGGUGGCGCGAUAGCGCCAACGUUCUCAACUAUGACACGCAAAACGCGUGCUCCGUUGAAUGGAGUUUAUCAUG

This sample holds only a part of the variants without activity.

The variants in this data set derive from B1. Briefly: polymerase ribozyme fitness, log enrichment relative to wild type (log ratio); higher = more active; in vitro selection for triplet polymerase activity. The method, boiled down: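 A single round of triplicate in vitro selection, including frozen incubation at −7 °C, was applied to PCR-built, transcribed mutant libraries of each subunit of a heterodimeric triplet polymerase ribozyme. Illumina sequencing of input and output libraries retained genotypes with ≥10 input reads and ≥1 read per output. Fitness is the base-2 logarithm of genotype enrichment divided by wild-type enrichment, from inverse-variance-weighted replicate averages.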
As for GGAUCUUCUCGAUCUAACAAAAAAGACAAAUCUGCCACAAAGCUUGAGAGCAUCUUCGGAUGCAGAGGCGGCAGCCUUCGGUGGCGCGAUAGCGCCAACGUUCUCAACUAUGACACGCAAAACGCGUGCUCCGUUAAAUGGAGUUUGUCAUG, the “polymerase ribozyme fitness (log ratio)” value is -1.36.

As for GGAUCUUCUCGAUCUAACAAAAAAGUCAAAUCUGCCACAAAGCUUGAGAGCAUCUUCGGAUGCAGAGGCGGCAGCCUUCGGUGGCGCGAUAGCGCUAACGUUCUCAACUAUGACAGGCAAAACGCGUGCUCCGUUGAAUGGAGUUUAUCAUG, the “polymerase ribozyme fitness (log ratio)” value was -1.18.

Take GGAUCUUCUCGAUCUAACACAAAAGACAAAUCUGCCACAAAGCUUGAGAGCAUCUUCGGAUGCAGAGGCGGCAGCCUUCGGUGGCGCGAUAGCGCCAACGUUCUCAACUAUGACACGUAAAACGCGUGCUCCGUUGAAUGGAGUUUAUCAUG: the “polymerase ribozyme fitness (log ratio)” value was -0.906.

Consider GGAUCUUCUCGAUCUAACAAAAAAGACAAAUCUGCCACAAAGCUUGAGAGCGUCAUCGGAUGCAGAGGCGGCAGCCUUCGGUGGCGGGAUAGCGCCAACGUUCUCAACUAUGACACGCAAAACGCGUGCUCCGUUGAAUGGAGUUUAUCAUG, for which the “polymerase ribozyme fitness (log ratio)” value is not above -4.2.

For the variant GGAUCUUCUCGAUCUAACAAAAAAGACAAAUCUGCCGCAAAGCUUGAGAGCAUCUUCGGGUGCAGAGGCGGCAGCCUUCGGUCGCGCGAUAGCGCUAACGUUCUCAACUAUGACACGCAAAACGCGUGCUCCGUUGAAUGUAGUUUAUCAUG, the “polymerase ribozyme fitness (log ratio)” value was -2.58.

For the variant GGAUCUUCUCGAUGCAACAAAAAAGACAAAUCUGCCACAAAGCUUGAGAGUAUCUUCGGAUGCAGAGACGGCAGCCUUCGGUAGCGCGAGAGCGCCAACGUUCUCAACUAUGACACGCAAAACGCGUGCUCCGUUGAAUGGAGUUUAUGAUG, the “polymerase ribozyme fitness (log ratio)” value was not above -4.2.

As to GGAUCUUCUCGACCUAACAAAAAAGACAAAUCUGCCACAAAGCUUGAGAGCAUCUUCGGAUGCAGAGGCGGCAGCCUUCGGUGGCGCGAUAGCACCAACGUUCUCAACUAUGACACGCAAAACGCGUGCUCCGUUGAAUGGAGUUUAUCAUG, the “polymerase ribozyme fitness (log ratio)” value was -0.431.

In the case of GGAUCUUCUCGAUCUAACAAAAAAGACAAAUCUGCCACAAAGCUUGAGAGCAUCUUCGGAUGCAGAGGCGGCAGCAUUCGGUGGCGCGAUAGCGCGAACGUUCUCAACUAUGACACGCAAAACGCGUGCUCCGUUGAAUGGAGUUUAUCAUG, the “polymerase ribozyme fitness (log ratio)” value was -1.51.

Take GGAUCUUCUCGAUCUAACAAACAAGACAAAUCUGCCACAAAGCUUGAGAGCAUCUUCGGAUGCAGAGGCGGCAGCCUCCGGUGGCGCGAUAGCGCCAGCGUGCUCAACUAUGACACGCAAAACGCGUGCUCCGUUGAAUGGAGUUUAUCAGG: the “polymerase ribozyme fitness (log ratio)” value was not above -4.2.

GGAUCUUCUCGAUCUAACAAAAAAGACAAAUCGGCCACAAAGCUUGAGAGCAUCUUCGGAUGCAGAGGCGGCAGCCUUCGGUGGCGAGAUAGCGCCAACGUUCUCAACUAUGACACGCAAAACGCGUGCUCCGUUGAAUGGUGUUUAUCAUG: the “polymerase ribozyme fitness (log ratio)” value was not above -4.2.

Consider GGAUCUUCUCGAUCUAACAAAAAAGACAAAUCUGCCACAAAGCUUCAGAGCAUCGUCUGAUGCAGAGGCGGCAGCCUUCGGUGGCGCGAUAGCGCCAACGUUCUCAACUAUGACACGCAAAACGCGUGCUCCGUUGAAUGGAGUUUAUCAUG, for which the “polymerase ribozyme fitness (log ratio)” value was -0.983.

In the case of GGAUCUUCUCGAUCUAACAAAAAAUACAAAUCUGCCCCAAAGCUUGAGAGCAUCUUCGGAUGCAGAGGCGGCAGCCUUCGGUAGCGCGAUAGCGCCAACGUUCUCAACUAUGACACGCAAAACGCGUGCUCCGCUGAAUGGAGUUUAUCAUG, the “polymerase ribozyme fitness (log ratio)” value was -2.66.

For GGAUCUACUCGAUCUAACAAAAAAAACAAAUCUGCCACAAAGCUUGAGAUCAUCUUCGGAUGCAGAGGCGGCAGCCUUCGGUGUCGCGAUAGCGCCAACGUUCUCAACUAUGACACGCAAAACGCGUGCUCCGUUGAAUGGAGUUUAUCAUG, the “polymerase ribozyme fitness (log ratio)” value was not above -4.2.

As to GGAUCGUCUCGAUCUCACAAAUAAGACAAAUCUGCCACAAAGCUUGAGAGUAUCUUCGGAUGCAGAGGCGGCAGCUUUCGGUGGAGCGAUAGCGCCAACGUUCUCAACUAUGACACGUAAAACGCGUGCUCCGUUGAAUGGAGUUUAUCAUG, the “polymerase ribozyme fitness (log ratio)” value was -3.97.

On to GGAUCUUCUCGAUCUAACAAAAAAGACAAAUCUGCCACAAAGCUUGAGAGCAUCAUCGGAUGCAGAGGCGGCAGCCUUCGGUGGCGCGAUAGCGCCAACGUUCUCAACUAUGAUACGCAAAACGCGUGCUCCGUUGAAUGGAGUUUAUCAUG, for which the “polymerase ribozyme fitness (log ratio)” value is -2.21.

Regarding GGAUCUUCACGAUCUAACAAAAAAGACAAAGCUGCCACAAAGCUUGAGAGCAUCUUCUGAUGCAGAGGCGGCUGCCUUCGGUGGCGCGAUAGCGCCAACGUUCUCAACUAUGACACGCAAAAUGCGUGCUCCGUAGAAUGGAGUUUAUCAUG, the “polymerase ribozyme fitness (log ratio)” value is not above -4.2.

As for GGAUCUUCUCGAUCUUACAAAAAAGACAAAUCUGCCACAAAGCUUGAGAGCAUCGUCGGAUGCAGAGGCGGCAGCCUUCGGUGGCGUGAUAGCGCCAACGUUCUCAACUAUGACACGCAAAACGCGUGCUCCGUUGAAUGGAGUUUAUCAUG, the “polymerase ribozyme fitness (log ratio)” value is -2.67.

Turning to GGACCUUCUCGAUCUCACUAAAAAGACAAAUCUGCCACAAAGCUUGAGAGCAUCUUCGGAUGCAGAGGCGGCAGCCUUCGGUGGCUCGAUAGCGCAAACGUUCUCAAAUAUGACACGCAAAACGCGUGCUCCGUUGAAUGGAGUUUAUCAUG, the “polymerase ribozyme fitness (log ratio)” value is not above -4.2.

GGAUCUUCUCGAUCUAACAAAAAAGACAAAUCUGCCACAAAGCUUGAGAGCAUCUUCGGAUGCAGAGGCGGCAGCCUUCGGUGGCGCGAUAGCGCCAACGUUCUCAACUAUGACACGCAAAACGCGUGCUCCGUUGGAUGGAGAUUAUCAUG: the “polymerase ribozyme fitness (log ratio)” value is -3.01.

Consider GGAUCUUCUCGAUCUAACAAAAAAGACAAAUCUGCCACAAAGCUUGAGAGCAUCUUCUGAUGCAGAGACGGCAGCCUUCGGUGGCGCGAUAGCGUCAACGUUCUCAACUAUGACACGCAAAACGCGUGCUCCGUUGAAUGGAGUUUAUCAUG, for which the “polymerase ribozyme fitness (log ratio)” value was -4.01.

Turning to GGAUCUUCUCGAUCUAACAAAAAAGACAAAUCUGCCACAAAGCUUGAGAGCAACUUCUGAUGCAGAGGCGGCAGCCUUCGGUGGCGCGAUAGCGACAACGUUCUCAACUAUGACACGCAAAACGCGUGCUCCGUUGAAUGGAGAUUAUAAUG, the “polymerase ribozyme fitness (log ratio)” value was not above -4.2.

Turning to GGAUCUUCUCGAUCUAACAAAAAAGACAAAUCUGCCACAAAGCUUGAUAGCAUCUUCGGAUGCAGAGGCGGCAGCCUUCGGUGGCGCGAUAGCGCCAACGUUCUCAACUAUGACACGCAAAACGCGUGCUCCGUUGAAUGGUGUUUAUCAUG, the “polymerase ribozyme fitness (log ratio)” value is -2.92.

For GGAUCUUCUCGAUCUAACAAAGAAGACCAAUCGGCCACAAAGCUUGAGAGCAUCUUCGGAUGCAGAGGCGGCAGCCUUCGGUGGCGCGAUAGACUCAACGUUCUCAACUAUGACACGCAAUACGCGUGCUCCGUUGAAUGGAGUUUAUCAUG, the “polymerase ribozyme fitness (log ratio)” value is not above -4.2.

In the case of GGAUCUUCUCGAUCUAACAAAAAAGACAAAUCUGCCACAAAGCUUGAGAGCAUCUUCGGAUGCAGAGGCGGCAGCCUUCGGUGGCGCGAUAGCGCAAACGUUCUUAACUAUGACACGCAAAACGCGUGCUCCGUUGAAUGGAGUUUAUCAUG, the “polymerase ribozyme fitness (log ratio)” value stood at 0.343.

For the variant GGAUCUUCUCGAUCUGACAACAAAGAGAAAUCUGCCACAAAGCUUGAGAGCAUCUUCGAAUGCAGACGCGGCAGCCUUCGGUGGCGCGAUAGCGCCAACGUUCUCAACUAUGACACGCAAAACGCGUGCUCCGUUGAAUGGAGUGUAUCAUG, the “polymerase ribozyme fitness (log ratio)” value was not above -4.2.

In the case of GGAUCUUCUCGAUCUAACAAAAAAGACAAAUCUGCCACAAAGCUUGAGAGCAUCUUCGGAUGCAGAGGCGGCAGCCUUCGGUGGCGCGAUAGCGCCAACGUUUUCAACUAUGACACGCAAAACGCGUGCUCCGUUGAAAGGAGUUUAUCAUG, the “polymerase ribozyme fitness (log ratio)” value was -3.96.

Regarding GGAUCCUCUCGAUCUAACAAAAAAGACAAAUCUGCCACCAAGCUUGAGAGCAUCUUCGGAUGCAGGGGCGGCAGCCUUCGGUGGCGCGAAAGAGCCAAACUUAUCAACUAUGACAGGCAAAACGCGUGCUCCGUUGAAUGGAGUUUCUCAUG, the “polymerase ribozyme fitness (log ratio)” value is not above -4.2.

As for GGAUCUUCUCGAUCUAACAAUAAAGACAAAUCUGCAACAAAGCUUGAGAGCAUCUUCGGAUGCAGAGGCGGCAGCCUUCAGUGGCGCAAUAGCGCCAACUUUCUCAACUAUGACACGCAAAACCCGUGCUCCAUUGAAUGGACUUUAACAUG, the “polymerase ribozyme fitness (log ratio)” value was not above -4.2.

Take GGAUCUUCUCGAUCUAACAAAAAAGACAAAUCUGCCACAAAGCUUGAGAGCAGCUUCGGAUCCAGAGGCGGCAGCCUUCGGUGGUGCGAUAGCGCCAACGUUCUCAACCAUGACACGCAAAACGCGUGCUCCGUUGAAUGGAGUUUAUCAUG: the “polymerase ribozyme fitness (log ratio)” value was not above -4.2.

Take GGAUCUUCUCGAUCUAACAAAAAAGACAAAUCUGCCACAAAGCUUGAGCGCAUCUUCGGAUGCAGAGGCGGAAGCCUUCGGUGGCGCGAUAGCGCCAACGUUCUCAAAUAUGACACGCAAAACGCGUGCUCCGUGGAAUGGAGUUUAUCAUG: the “polymerase ribozyme fitness (log ratio)” value was not above -4.2.

On to GGAUCUUCUGGAUCUAACAAAAAAGAUAAAUCUGCCACAAAGCUUGAGAGCAUCUUCGGAAGCAGAGGCGGCAGCCUUCGGUGGCGCGAUAGCGCCAAAGUUCUCAACUAUGACACGCAAAACGCGUGCUCCGUUGAAUGGAGUUUAUCAUG, for which the “polymerase ribozyme fitness (log ratio)” value was not above -4.2.

Consider GGAUCUUCUCGAUCUAACAAAAAAGACAAAUCUGCUACAAAGCUUGAGAGCAUCAUCGGAUGCAGAGGCGGCAGCCUUCGGUGGCGCGAUAGCGCCGACGUUCUCAACUAUGACACGCAAGACGCGUGCUCCGGUGAAUGGAGUUUAUCAUG, for which the “polymerase ribozyme fitness (log ratio)” value is -3.22.

Regarding GGAUCUUCUCGAUCUUCCAAAAAAGACAAAUCUGCCACAAAGCCUGAGAGCAUCUACGGAUGCAGAGGCGGCAGCUUUCGGUGGCGCUAUAGCGCCAACGUUCUCAACUAUGAAACGCAAAACGCGUGCUCCGUUGAAUGGAGUUUAUCAUG, the “polymerase ribozyme fitness (log ratio)” value was not above -4.2.

Take GGAUCUUCUCGAUCUAACAAAAAAGACAAAUCUGCCACAAAGCUUGAGAGCUUCUUCCGAUGCAGAGGCGGCAGCCUACGGUGGCGCGAUAGCGCCAACGUUCUCAACUAUGACACGCAAAGCGCGUGCUCCGUUGAAUGGAGUUUAUCAUG: the “polymerase ribozyme fitness (log ratio)” value was not above -4.2.

GGAUCUUCUCGAUCUAACAAAAAAGACAAAUCUGCCACAGAGCUUGAGAGCAUCUUCGGAUGCAGAGGCGGCAGGCUUCGGUGGCGCGAUAGCGCCAACGUUCUCAACUAUGACACGCAAAACGCGUGCUCCGUUGAAUGGAGUUUAUCAUG: the “polymerase ribozyme fitness (log ratio)” value was -4.09.

Take GGAUCAUCUCGAUCUAACAAAAAAACCAAAUCUGCCACAAAGCUUGAGAUCGUCUUCGGAUGCAGAGGCGGCAGCGUUCGGUGGCGCGAUAGCGCCAACGUUCUCAACUAUGACACGGAAAACGCGUGCUCCGUUAAAUGGAGUUUAUCAUG: the “polymerase ribozyme fitness (log ratio)” value is not above -4.2.

GGAUCUUCUCGAUCUAACAAAAAAGACAAAUCUGCCACCAACCUUGAGAGCAUCUUCGGAUGCAGAGGCGGCAGCAUUCGGUGGCGCGAUAGCGCCAACGUUCUCAACUAUGACACGCAAAACGCGUGCUCCGUUGAAUGGAGGUUAUCAUG: the “polymerase ribozyme fitness (log ratio)” value was not above -4.2.

On to GGAUCUUCUCGAUCUAACAAAAAAGACAAAUCUACCACAAAGCUUGAGAGCAUCUUCGGAUGCAGAGGCGGCAGCCUUCGGUGGCGCGAUAGCGCCAACGUUCUCAACUAUGACACGCAAAACGCGUGCUCCGUUGAAUGGAGUUUAUCAUG, for which the “polymerase ribozyme fitness (log ratio)” value was -0.292.

Source of the values: the RNAGym collection of RNA variant scans (doi:10.1073/pnas.2313332121).
